B1: Proto-oncogene vav, residues 782 to 842; numbered along this chain, P15498 (parent)
chain: KYFGTAKARYDFCARDRSELSLKEGDIIKILNKKGQQGWWRGEIYGRVGWFPANYVEEDYS

Variants of: B1
Assay: abundance fitness (aPCA) (normalised: wild type 0, dead -1); higher = more abundant; growth selection in yeast, the domain comes from the species named
Details: Homo sapiens

Abundance fitness of substitutions, site by site:
V48: P -0.733; S -0.062; T 0.071; W -0.491; Y -0.177
G49: A -0.433; C -0.83; D -0.956; F -0.87; K -0.92; L -1.01; M -0.907; N -0.956; P -0.776; Q -0.838; R -0.998; S -0.618; T -0.506; V -0.902
W50: A -0.649; D -0.493; E -0.603; F -0.678; G -0.699; I -0.739; K -0.559; L -0.341; M -0.387; N -0.329; Q -0.516; R -0.596; S -0.584; T -0.645; V -0.452; Y -0.17
F51: A -0.984; C -0.859; D -0.951; E -0.913; G -0.838; I -0.691; L -0.813; M -0.905; N -0.489; P -0.733; Q -0.759; R -0.78; S -0.857; T -0.799; V -0.684; W -0.988
P52: A -0.909; C -1.02; D -0.929; F -0.957; K -0.498; L -0.89; M -0.38; N -0.761; Q -0.528; R -0.89; S -0.95; T -0.778; V -0.787; W -0.943; Y -1.01
A53: C -0.078; D -0.641; E -0.208; F -0.472; G -0.4; H -0.011; I -0.314; K -0.243; L -0.505; M -0.178; N -0.444; P -0.226; Q -0.243; R -0.151; S -0.082; T -0.227; V -0.301; W -0.451; Y -0.341
N54: A 0.051; C -0.017; D 0.064; E 0.05; F -0.406; G -0.065; H -0.185; I -0.376; K -0.092; L -0.219; M -0.214; P -0.29; Q -0.201; R 0.055; S -0.054; T -0.112; V -0.098; W -0.091
Y55: A 0.053; C 0.093; D -0.736; E -0.763; F -0.258; G -0.396; H -0.226; K -0.388; L 0.058; M -0.012; P -0.925; Q -0.457; R -0.135; S -0.206; T -0.206; V -0.074; W -0.198
V56: A -0.191; C -0.452; E -0.562; F -0.794; G -0.545; H -0.753; I -0.554; K -0.599; L -0.616; M -1.02; N -0.807; P -0.73; Q -1; R -1.03; S -0.919; W -0.543; Y -0.325
E57: A -0.052; C -0.284; D -0.172; F -0.175; H -0.424; I -0.073; K -0.313; L -0.194; M -0.105; N -0.185; P -1.02; Q -0.109; R -0.123; S -0.059; T 0.025; V -0.001; W -0.478; Y -0.106
E58: A -0.186; D -0.435; F -0.297; G -0.338; H -0.533; L -0.225; M -0.216; N -0.6; P -0.169; Q -0.19; R -0.336; S -0.362

Source: the Human Domainome abundance scans (Beltran et al. 2025)
